Tests used:
[1] = biological target: activated FIX-albumin fusion protein with cleavable linker 1088/797 (human) (UniProt P00740); assay: cell-based or functional assay
[2] = biological target: activated FIX-albumin fusion protein with non-cleavable linker 980/797 (human) (UniProt P00740); assay: cell-based or functional assay

“antithrombin III (from UniProt P01008 33-464)” was tested. Which clotting time (naPTT) after 120 min incubation with AT [1] did it give?
Its clotting time (naPTT) after 120 min incubation with AT is 540 s.

And the clotting time (naPTT), control with AT but without incubation [1]?
Its clotting time (naPTT), control with AT but without incubation is 210 s.

And the factor of increase in clotting time (naPTT) after 120 min incubation with AT [1]?
Its factor of increase in clotting time (naPTT) after 120 min incubation with AT is 2.57 x.

And the clotting time (naPTT) after 120 min incubation with AT [2]?
The clotting time (naPTT) after 120 min incubation with AT was 411 s.

What about the clotting time (naPTT), control with AT but without incubation [2] of the same substance?
Its clotting time (naPTT), control with AT but without incubation is 196 s.

— patent EP2032607B1
